From doi:10.1101/2025.01.27.635100 (bioRxiv, 2025) come the findings set out here.

To fix the notation:
B4: P2 (PIH1D2), His tag cleaved, co-purified with S1’ (natural protein)
chain: METSSKGLLTQVTQFWNLLDDLAQSDPEGYEKFIQQQLKEGKQLCAAPEPQLCLQTRILKPKEKILFINLCQWTRIPAPQSTTHPVPLTVGKPEDTTEISDAYTVIDVAYNPDVLHAAEKDQVKKNQLIQMAMKCIEEKFQFTLSHSYHITKFRIKGSIQRMKQNLMGIQTDSIDLREKMRRELTLGQIRSSTMSNPDHFPQLLLPKDQVSGKAVCLIEEISSTEIQVEMKMPAYELKIVHDHSEKPLKIELKVELPGINSVSLCDLSVSEDDLLIEVSEKYRLHLNLPKLIDTEMTTAKFIKEKSTLIITMPLV

Values joined by “and” are separate entries in the source; they are usually repeats but may differ in a detail not shown here. Equal entries are not always repeated.

For test [1], the target named is R1R2 complex (6xHis-R1, 3xFLAG-R2), unlabeled, NMR interaction experiments (human, UniProt Q9Y265;Q9Y230). In words: NMR titration.
Chain of R1R2 complex (6xHis-R1, 3xFLAG-R2), unlabeled, NMR interaction experiments (Q9Y265 whole entry, chain 1 of 2): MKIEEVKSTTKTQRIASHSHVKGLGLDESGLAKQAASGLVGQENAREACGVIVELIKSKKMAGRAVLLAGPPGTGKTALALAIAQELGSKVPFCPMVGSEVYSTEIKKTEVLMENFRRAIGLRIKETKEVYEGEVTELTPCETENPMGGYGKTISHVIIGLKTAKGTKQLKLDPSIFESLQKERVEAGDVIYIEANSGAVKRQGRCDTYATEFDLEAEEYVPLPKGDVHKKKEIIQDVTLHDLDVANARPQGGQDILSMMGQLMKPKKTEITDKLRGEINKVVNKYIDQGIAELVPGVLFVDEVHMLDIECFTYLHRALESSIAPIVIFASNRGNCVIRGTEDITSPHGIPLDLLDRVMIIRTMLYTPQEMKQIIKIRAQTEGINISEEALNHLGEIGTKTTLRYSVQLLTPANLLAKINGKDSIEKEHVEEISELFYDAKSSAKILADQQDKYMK
Chain of R1R2 complex (6xHis-R1, 3xFLAG-R2), unlabeled, NMR interaction experiments (Q9Y230 whole entry, chain 2 of 2): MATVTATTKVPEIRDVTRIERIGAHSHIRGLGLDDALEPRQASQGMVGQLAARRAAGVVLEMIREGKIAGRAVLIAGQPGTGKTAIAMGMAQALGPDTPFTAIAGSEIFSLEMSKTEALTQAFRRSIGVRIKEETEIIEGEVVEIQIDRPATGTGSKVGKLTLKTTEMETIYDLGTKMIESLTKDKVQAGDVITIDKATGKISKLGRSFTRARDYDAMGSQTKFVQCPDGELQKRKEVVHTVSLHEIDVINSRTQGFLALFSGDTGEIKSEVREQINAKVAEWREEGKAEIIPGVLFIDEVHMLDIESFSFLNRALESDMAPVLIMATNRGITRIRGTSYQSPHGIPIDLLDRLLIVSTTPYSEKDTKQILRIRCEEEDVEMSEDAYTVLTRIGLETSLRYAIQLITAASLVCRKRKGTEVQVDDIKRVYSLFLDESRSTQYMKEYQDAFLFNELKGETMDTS
Test [2] deals with T1, S1’’ (S1_(622-762)), extended version of S1_TPR3 (human, UniProt Q07617 622-762).
T1 sequence: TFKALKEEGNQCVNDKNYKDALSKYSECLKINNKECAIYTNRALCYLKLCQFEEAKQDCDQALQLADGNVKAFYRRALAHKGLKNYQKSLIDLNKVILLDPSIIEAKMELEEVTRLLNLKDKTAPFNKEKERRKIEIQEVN
In words: NMR.

Test [3] concerns the target R1^D302N R2^D299N complex, double active site mutant (no hydrolysis, ATP loaded) (human, UniProt Q9Y265;Q9Y230, D302N | D299N). In words: SPR.
For test [4], the target named is RUVBL2 (R2) as a chain of the reconstituted R2S’P sample (human, UniProt Q9Y230 1-463). In words: cross-linking.
Chain of RUVBL2 (R2) as a chain of the reconstituted R2S’P sample (Q9Y230 whole entry): as the sequence (Q9Y230 whole entry, chain 2 of 2) above
Test [5] concerns the target RUVBL1 (R1) as a chain of the reconstituted R2S’P sample (human, UniProt Q9Y265 1-456). In words: cross-linking.
Test [6] has as its target B4. In words: cross-linking.
Test [7] deals with T2, R1R2 hetero-hexamer (pETDuet:His-R1R2-FH8), preparation for cryo-EM, native MS, mass photometry and XL-MS (human, UniProt Q9Y265;Q9Y230). In words: native MS.
T2 sequence (Q9Y265 whole entry, chain 1 of 2): as the sequence (Q9Y265 whole entry, chain 1 of 2) above
T2 sequence (Q9Y230 whole entry, chain 2 of 2): as the sequence (Q9Y230 whole entry, chain 2 of 2) above
Test [8] has as its target T2, R1R2 hetero-hexamer …. In words: mass photometry.

Chain of R1^D302N R2^D299N complex, double active site mutant (no hydrolysis, ATP loaded) (Q9Y265 whole entry D302N, chain 1 of 2): as the sequence (Q9Y265 whole entry, chain 1 of 2) above, with D302N counted along it
Chain of R1^D302N R2^D299N complex, double active site mutant (no hydrolysis, ATP loaded) (Q9Y230 whole entry D299N, chain 2 of 2): as the sequence (Q9Y230 whole entry, chain 2 of 2) above, with D299N counted along it
Chain of RUVBL1 (R1) as a chain of the reconstituted R2S’P sample (Q9Y265 whole entry): as the sequence (Q9Y265 whole entry, chain 1 of 2) above

B1: S1_C (SPAG1 796-926), isotope-labelled NMR sample (domain or fragment)
chain: EKLPIAKPNNAYEFGQIINALSTRKDKEACAHLLAITAPKDLPMFLSNKLEGDTFLLLIQSLKNNLIEKDPSLVYQHLLYLSKAERFKMMLTLISKGQKELIEQLFEDLSDTPNNHFTLEDIQALKRQYEL
Take B1: in test [1], the binding result is “binds”.

B2: P2_CS domain (P2_(231-315)) (domain or fragment)
chain: KMPAYELKIVHDHSEKPLKIELKVELPGINSVSLCDLSVSEDDLLIEVSEKYRLHLNLPKLIDTEMTTAKFIKEKSTLIITMPLV
In the case of B2, the binding result in test [2] is recorded as “binds”.

B3: S1’P2 heterodimer, SPR preparation (complex)
chain 1: TFKALKEEGNQCVNDKNYKDALSKYSECLKINNKECAIYTNRALCYLKLCQFEEAKQDCDQALQLADGNVKAFYRRALAHKGLKNYQKSLIDLNKVILLDPSIIEAKMELEEVTRLLNLKDKTAPFNKEKERRKIEIQEVNEGKEEPGRPAGEVSMGCLASEKGGKSSRSPEDPEKLPIAKPNNAYEFGQIINALSTRKDKEACAHLLAITAPKDLPMFLSNKLEGDTFLLLIQSLKNNLIEKDPSLVYQHLLYLSKAERFKMMLTLISKGQKELIEQLFEDLSDTPNNHFTLEDIQALKRQYEL
chain 2: METSSKGLLTQVTQFWNLLDDLAQSDPEGYEKFIQQQLKEGKQLCAAPEPQLCLQTRILKPKEKILFINLCQWTRIPAPQSTTHPVPLTVGKPEDTTEISDAYTVIDVAYNPDVLHAAEKDQVKKNQLIQMAMKCIEEKFQFTLSHSYHITKFRIKGSIQRMKQNLMGIQTDSIDLREKMRRELTLGQIRSSTMSNPDHFPQLLLPKDQVSGKAVCLIEEISSTEIQVEMKMPAYELKIVHDHSEKPLKIELKVELPGINSVSLCDLSVSEDDLLIEVSEKYRLHLNLPKLIDTEMTTAKFIKEKSTLIITMPLV
Take B3: the binding result in test [3] is listed as “binds”.

For B4, the binding result in test [4] and in test [5] was “binds” in each case.

B5: S1’ (SPAG1 622-926), untagged, co-expressed with His-P2 (domain or fragment)
chain: TFKALKEEGNQCVNDKNYKDALSKYSECLKINNKECAIYTNRALCYLKLCQFEEAKQDCDQALQLADGNVKAFYRRALAHKGLKNYQKSLIDLNKVILLDPSIIEAKMELEEVTRLLNLKDKTAPFNKEKERRKIEIQEVNEGKEEPGRPAGEVSMGCLASEKGGKSSRSPEDPEKLPIAKPNNAYEFGQIINALSTRKDKEACAHLLAITAPKDLPMFLSNKLEGDTFLLLIQSLKNNLIEKDPSLVYQHLLYLSKAERFKMMLTLISKGQKELIEQLFEDLSDTPNNHFTLEDIQALKRQYEL
Regarding B5, the binding result in test [4] and in test [6] was “binds” throughout.

B6: S1’P2 heterodimer, preparation for cryo-EM, native MS, mass photometry and XL-MS (complex)
chain 1: TFKALKEEGNQCVNDKNYKDALSKYSECLKINNKECAIYTNRALCYLKLCQFEEAKQDCDQALQLADGNVKAFYRRALAHKGLKNYQKSLIDLNKVILLDPSIIEAKMELEEVTRLLNLKDKTAPFNKEKERRKIEIQEVNEGKEEPGRPAGEVSMGCLASEKGGKSSRSPEDPEKLPIAKPNNAYEFGQIINALSTRKDKEACAHLLAITAPKDLPMFLSNKLEGDTFLLLIQSLKNNLIEKDPSLVYQHLLYLSKAERFKMMLTLISKGQKELIEQLFEDLSDTPNNHFTLEDIQALKRQYEL
chain 2: METSSKGLLTQVTQFWNLLDDLAQSDPEGYEKFIQQQLKEGKQLCAAPEPQLCLQTRILKPKEKILFINLCQWTRIPAPQSTTHPVPLTVGKPEDTTEISDAYTVIDVAYNPDVLHAAEKDQVKKNQLIQMAMKCIEEKFQFTLSHSYHITKFRIKGSIQRMKQNLMGIQTDSIDLREKMRRELTLGQIRSSTMSNPDHFPQLLLPKDQVSGKAVCLIEEISSTEIQVEMKMPAYELKIVHDHSEKPLKIELKVELPGINSVSLCDLSVSEDDLLIEVSEKYRLHLNLPKLIDTEMTTAKFIKEKSTLIITMPLV
Take B6: the “stoichiometry N” value in test [7] is 1 S’P2 per R1R2 hexamer and 2 S’P2 per R1R2 hexamer; in test [8], 1 S1’P2 per R1R2 hexamer and 2 S1’P2 per R1R2 hexamer and 1 S1’P2 per R1R2 dodecamer and 2 S1’P2 per R1R2 dodecamer.

B7: S1’P2_(231-315) heterodimer, SPR preparation (complex)
chain 1: TFKALKEEGNQCVNDKNYKDALSKYSECLKINNKECAIYTNRALCYLKLCQFEEAKQDCDQALQLADGNVKAFYRRALAHKGLKNYQKSLIDLNKVILLDPSIIEAKMELEEVTRLLNLKDKTAPFNKEKERRKIEIQEVNEGKEEPGRPAGEVSMGCLASEKGGKSSRSPEDPEKLPIAKPNNAYEFGQIINALSTRKDKEACAHLLAITAPKDLPMFLSNKLEGDTFLLLIQSLKNNLIEKDPSLVYQHLLYLSKAERFKMMLTLISKGQKELIEQLFEDLSDTPNNHFTLEDIQALKRQYEL
chain 2: KMPAYELKIVHDHSEKPLKIELKVELPGINSVSLCDLSVSEDDLLIEVSEKYRLHLNLPKLIDTEMTTAKFIKEKSTLIITMPLV
As for B7, the binding result in test [3] was “binds”.
